# Measured values from the supplement of paper PMC7125110.
# ± gives the standard error. For part of these data: Variants at the floor of the assay were thinned out.
# B1: glmS ribozyme (parent)
# chain: AUAAAAGCGCCAGAACUACAGAAAUGUAGUUGACGAGGAGGAGGUUUAUCGAAUUUUCGGCGGAUGCCUCCAAA
# Tests used:
# Settings in all cases: with glucosamine-6-phosphate
# glucosamine-6-phosphate [1] = variants of: B1; test: kcat; higher = faster cleavage; RNA array
# Method in brief: (§1)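 Using a hybridised Cy3 probe at 37 °C, barcoded ribozyme variants transcribed in situ by E. coli RNA polymerase on sequenced MiSeq chips were monitored across tiles imaged over ~14 h. The flow contained glucosamine-6-phosphate from 40 μM to 10 mM in HEPES/KCl/Mg(OAc)2 buffer. Signals were normalised to baseline and to non-cleaving reference variants before per-tile medians were fit to one- or two-exponential decays to yield kobs. Weighted Michaelis–Menten fits across concentrations gave kcat and KM.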
# glucosamine-6-phosphate [2] = variants of: B1; test: KM; higher = weaker cofactor use; RNA array
# Method in brief: as §1
# glucosamine-6-phosphate [3] = variants of: B1; test: self-cleavage kobs at 160 uM GlcN6P; higher = faster cleavage; RNA array
# Method in brief: as §1
# glucosamine-6-phosphate [4] = variants of: B1; test: self-cleavage kobs at 640 uM GlcN6P; higher = faster cleavage; RNA array
# Method in brief: as §1
# glucosamine-6-phosphate [5] = variants of: B1; test: self-cleavage kobs at 2500 uM GlcN6P; higher = faster cleavage; RNA array
# Method in brief: as §1
# glucosamine-6-phosphate [6] = variants of: B1; test: self-cleavage kobs at 10000 uM GlcN6P; higher = faster cleavage; RNA array
# Method in brief: as §1
# glucosamine-6-phosphate [7] = variants of: B1; test: self-cleavage kobs at 40 uM GlcN6P; higher = faster cleavage; RNA array
# Method in brief: as §1
Variant,kcat (glucosamine-6-phosphate [1]) [s⁻¹],KM (glucosamine-6-phosphate [2]) [µM],self-cleavage kobs at 160 uM GlcN6P (glucosamine-6-phosphate [3]) [s⁻¹],self-cleavage kobs at 640 uM GlcN6P (glucosamine-6-phosphate [4]) [s⁻¹],self-cleavage kobs at 2500 uM GlcN6P (glucosamine-6-phosphate [5]) [s⁻¹],self-cleavage kobs at 10000 uM GlcN6P (glucosamine-6-phosphate [6]) [s⁻¹],self-cleavage kobs at 40 uM GlcN6P (glucosamine-6-phosphate [7]) [s⁻¹]
A12U A64C,0.000692 ± 7.8e-05,3580 ± 660,4.03e-05 ± 1.6e-05,0.000107 ± 1.6e-05,0.000264 ± 3.9e-05,0.000531 ± 7.6e-05,–
A12U G44U U47G,1.54e-05 ± 2.4e-06,–,–,–,–,–,–
A12G G13C,2.64e-05 ± 6.5e-07,2100 ± 230,< 1e-05,–,–,–,< 1e-05
A12U U47G U57C,0.000776 ± 0.00016,8650 ± 3200,–,–,0.000172 ± 4.9e-05,0.000417 ± 6.9e-05,–
A12C C50G G66C,0.000103 ± 2.8e-05,–,0.00011 ± 3.2e-05,7.92e-05 ± 2.3e-05,0.000103 ± 2.6e-05,–,–
A12U C50A,0.000111 ± 2.6e-06,1660 ± 130,–,3.27e-05 ± 1.3e-05,6.47e-05 ± 1.4e-05,9.58e-05 ± 1.2e-05,–
A12C G44A A53U,0.000479 ± 4.3e-05,4570 ± 530,–,5.92e-05 ± 1.6e-05,0.000169 ± 4.4e-05,–,–
A12G C71U,0.00146 ± 0.0001,4370 ± 470,5.89e-05 ± 1.1e-05,0.000183 ± 1.9e-05,0.000525 ± 4.6e-05,0.00102 ± 8.1e-05,–
C11U U46G,0.000268 ± 4.3e-05,2460 ± 740,–,5.11e-05 ± 7.1e-06,0.00018 ± 2.7e-05,0.000204 ± 2.3e-05,–
A12G G62C,< 1e-05,151 ± 74,–,–,–,< 1e-05,–
A12G U45A,0.00242 ± 0.00064,3500 ± 1300,0.000103 ± 1.6e-05,0.00041 ± 5.3e-05,0.000811 ± 0.00014,0.00207 ± 0.00031,4.21e-05 ± 1.5e-05
A12G U45G,0.000591 ± 1.8e-05,5260 ± 300,–,6.36e-05 ± 1.3e-05,0.000197 ± 4.2e-05,0.000386 ± 3.9e-05,–
A12G U45C,6.32e-05 ± 3.9e-06,2510 ± 620,–,–,3.29e-05 ± 1.6e-05,5.04e-05 ± 8e-06,–
A12C U47C,0.00284 ± 0.00039,1840 ± 380,0.000185 ± 3.6e-05,0.000953 ± 0.00013,0.00187 ± 0.00022,0.00226 ± 0.0002,5.87e-05 ± 6.2e-06
A12C U47A,0.011 ± 0.0034,1620 ± 740,0.00131 ± 0.00027,0.00346 ± 0.00056,0.00529 ± 0.00087,0.014 ± 0.0025,0.000246 ± 4.3e-05
A12C U47G,0.00307 ± 0.00048,1400 ± 310,0.000267 ± 4.4e-05,0.00106 ± 0.00014,0.00247 ± 0.00041,0.00245 ± 0.00036,9.09e-05 ± 1.3e-05

Variant,kcat (glucosamine-6-phosphate [1]) [s⁻¹],KM (glucosamine-6-phosphate [2]) [µM],self-cleavage kobs at 160 uM GlcN6P (glucosamine-6-phosphate [3]) [s⁻¹],self-cleavage kobs at 640 uM GlcN6P (glucosamine-6-phosphate [4]) [s⁻¹],self-cleavage kobs at 2500 uM GlcN6P (glucosamine-6-phosphate [5]) [s⁻¹],self-cleavage kobs at 10000 uM GlcN6P (glucosamine-6-phosphate [6]) [s⁻¹],self-cleavage kobs at 40 uM GlcN6P (glucosamine-6-phosphate [7]) [s⁻¹]
A12G G29U C67G,7.88e-05 ± 1.7e-05,–,–,–,–,6.04e-05 ± 1.4e-05,–
A12U C50U C67G,4.36e-05 ± 2.1e-05,–,–,6.16e-05 ± 2.1e-05,–,–,–
A12U U47G C70G,0.000218 ± 4.7e-05,–,7.51e-05 ± 1.5e-05,0.000234 ± 3.9e-05,0.000217 ± 3.7e-05,0.000201 ± 3.3e-05,6.36e-05 ± 1.3e-05
A12U A15U,0.0118 ± 0.0023,1190 ± 320,0.0011 ± 0.00016,0.00509 ± 0.00065,0.00905 ± 0.0015,0.00986 ± 0.0013,0.000433 ± 4.6e-05
A12G A39U,0.000523 ± 9.7e-05,4350 ± 1400,–,6.01e-05 ± 1.2e-05,0.000246 ± 4.1e-05,0.00035 ± 4.6e-05,–
A12G A39G,0.0017 ± 0.00036,4960 ± 1500,3.92e-05 ± 9.9e-06,0.00022 ± 2.9e-05,0.000622 ± 9e-05,0.00109 ± 0.00014,–
A12G A14U C58A G66C,0.000245 ± 7.5e-05,–,–,–,–,8.77e-05 ± 2.7e-05,–
A12U U54G,0.0434 ± 0.021,–,0.00452 ± 0.00078,0.0495 ± 0.012,0.0405 ± 0.019,0.0363 ± 0.0092,0.00183 ± 0.00035
G13A G37U,1.65e-05 ± 1.7e-06,621 ± 190,–,–,–,< 1e-05,< 1e-05
A12U G41C,0.000373 ± 8.7e-05,1830 ± 770,2.68e-05 ± 1.1e-05,0.000108 ± 1.2e-05,0.000168 ± 2.7e-05,0.000373 ± 5e-05,–
A12U U57G,0.000297 ± 3.7e-05,2260 ± 590,4.4e-05 ± 2.1e-05,6.1e-05 ± 1.2e-05,0.000162 ± 2.6e-05,0.000241 ± 3e-05,–
A12U U57C,0.00174 ± 0.00086,–,6.12e-05 ± 2.3e-05,0.000217 ± 3.9e-05,0.000638 ± 0.00014,0.00126 ± 0.00038,6.27e-05 ± 2.3e-05
A12U C16A,0.00549 ± 0.00094,2210 ± 520,–,0.00128 ± 0.00027,0.00417 ± 0.00091,0.00413 ± 0.00074,9.36e-05 ± 1.5e-05
A12G A42U,4.92e-05 ± 2.6e-06,–,–,–,–,1.63e-05 ± 6.6e-06,–
A12G G51C,< 1e-05,–,< 1e-05,–,< 1e-05,< 1e-05,< 1e-05
